Measured values from patent US20230065495A1, “MULTIPARTITE AND CIRCULARLY PERMUTED BETA-BARREL POLYPEPTIDES AND METHODS FOR THEIR USE” (University of Washington, priority 2020, published 2023).

What was measured:
[1] = Chromophore titration with DFHBI; type: binding
Method: (§1) Fluorescence endpoints were measured on a Synergy Neo2™ hybrid multi-mode reader (BioTek) in flat bottom, black polystyrene, non-binding surface 96-well microplates (Corning 3650). In measuring chromophore binding affinities (FIG. 6d,e), mFAP2, mFAP2a, and mFAP2b, and mFAP10 were produced by large-scale protein purification and SEC purification^9. Proteins were aliquoted in eight technical replicates in 200 μL final volumes to 20.0 nM final concentration in ten serial dilutions (√{square root over (10)} dilution factor) of DFHBI starting from 31.6 μM DFHBI or 31.6 μM DFHBI-1T final concentrations, including an eleventh condition without chromophore. Fluorescence was excited at λex=468 nm and fluorescence emission measured at λem=530 nm. Background fluorescence endpoints of wells with identical chromophore concentrations but purified protein replaced with an identical volume of high salt Tev cleavage buffer were measured, and fluorescence endpoints subtracted from those measured with protein. Background-subtracted data were averaged and the means normalized from 0 to 1 and fit to a single binding site isotherm function using non-linear least squares fitting to obtain a fitted Kd value (Table 4), and the fit scaled to the maximum mean value (FIG. 6d,e).

[2] = Chromophore titration with DFHBI-1T; type: binding
Method: as §1

[3] = Absolute quantum yield (integrating sphere) and brightness; type: physicochemical
Method: Protein preparation. mFAP2a, mFAP2b and mFAP10 were produced by large-scale protein purification^9 and dialyzed overnight into DPBS that was adjusted to pH 7.40 using NaOH.
Chromophore preparation. DFHBI (Lucerna) and DFHBI-1T (Lucerna) were dissolved to 20.0 mM in 100% DMSO, and diluted in DPBS (pH 7.40) to measure absorbances on a Jasco V-750 spectrophotometer at peak absorbance wavelengths (417 nm for DFHBI and 422 nm for DFHBI-1T). Following background subtraction of identical buffer without chromophore, Beer's Law was used to calculate the molar chromophore concentrations of the stock solutions using previously reported extinction coefficients^5.
Preparation of protein-chromophore complexes. […]
Absolute quantum yield. […] Absolute quantum yields were measured for solutions of protein-chromophore complexes in DPBS (pH 7.40) in which ≥95% of the total chromophore was occupying the protein binding pocket (Table 4). Protein-chromophore complex samples and control samples were excited at λex=440 nm and absolute quantum yields were calculated according to the equation: […]
where fem is the emitted photon flux and fabs is the absorbed photon flux. […] Absolute quantum yield data was analyzed with U6039-05 PLQY measurement software (Table 4; FIG. 8).

Kd [2]: 45 nM
B1: mFAP10: canonical, single-chain mFAP, SEQ ID NO: 534 (protein)
chain: SRAAQLLPGTWQATFTNEDGQTSQGQIHFQPRSPYTMDIVAQGTISDGRPIVGYGKATVKTPDTLDIDITYPSLGNIKAQGQITMDSPTQFKFDATTKGENDFHGRLTGTLQRQE
higher affinity for DFHBI than DFHBI-1T [1]: ~2.6 fold
brighter fluorescence with DFHBI-1T than DFHBI [3]: ~12 fold
